Test results as given in patent US20210355221A1, “Targeting the Non-Canonical NFkB Pathway in Cancer Immunotherapy” (The General Hospital Corporation, priority 2018, published 2021).

Tests used:
[1] = tested on: Tumor-infiltrating CD8^+ T cells isolated from MC38 tumors; test: In vitro restimulation of tumor-infiltrating CD8+ T cells isolated from MC38 tumors (intracellular IFN-γ, flow cytometry); format: cell-based, mice; conditions: aCD3/CD28 stimulation with IL-12 (20 ng/ml), 72 hours
Procedure: Tumor tissue or tumor draining lymph nodes were isolated from mice and minced using surgical scissors. Tissues were then digested using 0.2 mg/ml Collagenase II (Worthington) in RPMI 1640 media (CellGro) at 37° C. for 30 minutes and then strained through a 40 μm filter (BD Falcon). Cell suspensions were incubated with Fc Block TruStain FcX Clone 93 (Biolegend) in PBS containing 0.5% BSA and 2 mM EDTA before staining with fluorochrome labeled antibodies. Antibodies against CD11b (M1/70, Biolegend), CD8a (53-6.7, Biolegend), CD45 (30-F11, BD), F4/80 (BM8, Biolegend), CD11c (N418, Biolegend), MHC II I-A/I-E (M5/114.15.2, Biolegend), CD103 (2E7, Biolegend), IFN-γ (XMG1.2, Biolegend) were used for marker staining. 7AAD viability staining was used to exclude dead cells from analysis. Samples were run on a LSR II flow cytometer and analyzed using FlowJo software (Treestar). For intracellular cytokine staining, samples were incubated for 5 hours with GolgiPlug (BD) at 1 μl per ml of culture media. Cells were then surface stained and then fixed and permeabilized using the BD Cytofix/Cytoperm kit (BD) according to manufacturer's protocol and stained for intracellular cytokines.
MC38 tumors were digested into single cell suspensions similar to tissue processing for flow cytometry analysis and were passed through a 40 μm filter. […]

[2] = tested on: human tumor-infiltrating CD8^+ T cells; test: IL-12 ex vivo studies: IFN-γ ELISA of stimulated patient tumor-infiltrating CD8+ T cells; format: cell-based; conditions: aCD3 stimulation with IL-12, six cancer patients, 3 days
From the text: IL-12 ex vivo studies: Fresh tumor resections from six cancer patients undergoing surgical treatment at University Hospital Basel, Switzerland were used to assess whether IL-12 can directly activate human tumor-infiltrating CD8^+ T cells upon isolation of these cells ex vivo. Tumor tissue (two lung adenocarcinomas, three squamous cell carcinomas and one synovial sarcoma) was collected from six different patients undergoing primary surgical treatment between November 2015 and November 2017. The study was approved by the local Ethical Review Board (Ethikkommission Nordwestschweiz) and all patients consented in writing to the analysis of their tumor samples. The solid tumor lesions were mechanically dissociated and enzymatically digested using accutase (PAA), collagenase IV (Worthington), hyaluronidase (Sigma) and DNAse type IV (Sigma), directly after excision. Single cell suspensions were prepared and cryopreserved in liquid nitrogen in 90% fetal calf serum (FCS, Brunschwig Pan Biotech) and 10% dimethylsulfoxide (DMSO, Sigma) until further usage. […] Sorting purity was measured by reanalyzing the sorted cells and always reached >95% purity. […] IFN-γ secreted by these cultures was then measured by enzyme-linked immunosorbent assay according to the instructions by the manufacturer (BD, OptEIA human IFN-γ ELISA set). […]

B1: IL-12: recombinant IL-12 in mouse studies; recombinant human IL-12p70 (PeproTech) in the human ex vivo studies (protein, UniProt P29459 23-219; P29460 23-328, looked up)
Interleukin-12 subunit alpha: RNLPVATPDPGMFPCLHHSQNLLRAVSNMLQKARQTLEFYPCTSEEIDHEDITKDKTSTVEACLPLELTKNESCLNSRETSFITNGSCLASRKTSFMMALCLSSIYEDLKMYQVEFKTMNAKLLMDPKRQIFLDQNMLAVIDELMQALNFNSETVPQKSSLEEPDFYKTKIKLCILLHAFRIRAVTIDRVMSYLNAS
Interleukin-12 subunit beta: IWELKKDVYVVELDWYPDAPGEMVVLTCDTPEEDGITWTLDQSSEVLGSGKTLTIQVKEFGDAGQYTCHKGGEVLSHSLLLLHKKEDGIWSTDILKDQKEPKNKTFLRCEAKNYSGRFTCWWLTTISTDLTFSVKSSRGSSDPQGVTCGAATLSAERVRGDNKEYEYSVECQEDSACPAAEESLPIEVMVDAVHKLKYENYTSSFFIRDIIKPDPPKNLQLKPLKNSRQVEVSWEYPDTWSTPHSYFSLTFCVQVQGKSKREKKDRVFTDKTSATVICRKNASISVRAQDRYYSSSWSEWASVPCS
IFN-γ production by stimulated CD8^+ T cells [1]: substantially increased IFN-γ production
IFN-γ production by CD8^+ T cells [2]: increased IFN-γ production by CD8^+ T cells in five out of six patients
